# Measurements from patent publication US20230416365A1 (Hoffmann-La Roche, published 2023).
# Like-named read-outs stand apart in the source and are kept apart here.
# B1: CD28(SA)_variant_12 (antibody, human IgG1, kappa, L234A L235A)
# heavy: not shown
# light: DIQMTQSPSSLSASVGDRVTITCRASQNIYVWLNWYQQKPGKAPKLLIYKASNLYSGVPSRFSGSRSGTDFTLTISSLQPEDFATYYCQQGQTYPYTFGQGTKLEIKRTVAAPSVFIFPPSDRKLKSGTASVVCLLNNFYPREAKVQWKVDNALQSGNSQESVTEQDSKDSTYSLSSTLTLSKADYEKHKVYACEVTHQGLSSPVTKSFNRGEC
# chain: DKTHTCPPCPAPEAAGGPSVFLFPPKPKDTLMISRTPEVTCVVVDVSHEDPEVKFNWYVDGVEVHNAKTKPREEQYNSTYRVVSVLTVLHQDWLNGKEYKCKVSNKALGAPIEKTISKAKGQPREPQVCTLPPSRDELTKNQVSLSCAVKGFYPSDIAVEWESNGQPENNYKTTPPVLDSDGSFFLVSKLTVDKSRWQQGNVFSCSVMHEALHNRFTQKSLSLSP
# notes: monovalent one-armed huIgG1 PG-LALA; from supernatant; also called P1AE3068
# B2: CD28(SA)_variant_13 (antibody, human IgG1, kappa, L234A L235A)
# heavy: not shown
# light: not shown
# chain: B1 chain
# notes: monovalent one-armed huIgG1 PG-LALA; from supernatant; also called P1AE3069
# B3: CD28(SA)_variant_30 (antibody, human IgG1, kappa, L234A L235A)
# heavy: not shown
# light: B1 light
# chain: B1 chain
# notes: monovalent one-armed huIgG1 PG-LALA; from supernatant; also called P1AE3086
# B4: CD28(SA)_variant_31 (antibody, human IgG1, kappa, L234A L235A)
# heavy: not shown
# light: not shown
# chain: B1 chain
# notes: monovalent one-armed huIgG1 PG-LALA; from supernatant; also called P1AE3087
# B5: CD28(SA)_variant_15 (antibody, human IgG1, kappa, L234A L235A)
# heavy: not shown
# light: not shown
# chain: B1 chain
# notes: monovalent one-armed huIgG1 PG-LALA; from supernatant; also called P1AE3071
# B6: CD28(SA)_variant_16 (antibody, human IgG1, kappa, L234A L235A)
# heavy: not shown
# light: not shown
# chain: B1 chain
# notes: monovalent one-armed huIgG1 PG-LALA; from supernatant; also called P1AE3072
# B7: CD28(SA)_variant_17 (antibody, human IgG1, kappa, L234A L235A)
# heavy: not shown
# light: not shown
# chain: B1 chain
# notes: monovalent one-armed huIgG1 PG-LALA; from supernatant; also called P1AE3073
# B8: CD28(SA)_variant_19 (antibody, human IgG1, kappa, L234A L235A)
# heavy: not shown
# light: not shown
# chain: B1 chain
# notes: monovalent one-armed huIgG1 PG-LALA; from supernatant; also called P1AE3075
# B9: CD28(SA)_variant_25 (antibody, human IgG1, kappa, L234A L235A)
# heavy: not shown
# light: not shown
# chain: B1 chain
# notes: monovalent one-armed huIgG1 PG-LALA; from supernatant; also called P1AE3081
# B10: CD28(SA)_variant_26 (antibody, human IgG1, kappa, L234A L235A)
# heavy: not shown
# light: not shown
# chain: B1 chain
# notes: monovalent one-armed huIgG1 PG-LALA; from supernatant; also called P1AE3082
# B11: CD28(SA)_variant_27 (antibody, human IgG1, kappa, L234A L235A)
# heavy: not shown
# light: not shown
# chain: B1 chain
# notes: monovalent one-armed huIgG1 PG-LALA; from supernatant; also called P1AE3083
# B12: CD28(SA)_variant_29 (antibody, human IgG1, kappa, L234A L235A)
# heavy: not shown
# light: not shown
# chain: B1 chain
# notes: monovalent one-armed huIgG1 PG-LALA; from supernatant; also called P1AE3085
# B13: A5H1EL1D Fab (phage display format, parental clone) (Fab, V domains shown)
# VH: EVQLLESGGGLVQPGGSLRLSCAASGFTFTDYYMNWVRQAPGKGLEWLGFIGNKANAYTTEYSASVKGRFTISRDKSKNTLYLQMNSLRAEDTATYYCTRDRGLRFYFDYWGQGTTVTVSS
# VL: EIVLTQSPATLSLSPGERATLSCRASSSVTYIHWYQQKPGQAPRSWIYATSNLASGIPARFSGSGSGTDFTLTISSLEPEDFAVYYCQHWSSKPPTFGQGTKLEIK
# notes: Fab from E. coli (bacterial supernatant or IMAC-purified), Flag tag
# How the values were obtained:
# [1] = biological target: T1, human CD28 on CHO cells (parental cell line CHO-k1 ATCC #CCL-61, modified to stably overexpress human CD28) (human, UniProt P10747 19-220); assay: flow cytometry on CHO cells stably expressing human CD28, monovalent one-armed IgG from supernatant, MFI (PE)
# T1 construct: also called hu CD28; CHO-hCD28
# [2] = biological target: T1, human CD28 on CHO cells (parental cell …); assay: as above; remark: listed apart in the source
# [3] = biological target: T2, N(A2B2)A-avi-His (biotinylated at the avi tag); assay: SPR, ProteOn, antigen on NLC chip, purified Fab as analyte
# T2 construct: also called biotinylated N(A2B2)A-avi-His
# T2 chain: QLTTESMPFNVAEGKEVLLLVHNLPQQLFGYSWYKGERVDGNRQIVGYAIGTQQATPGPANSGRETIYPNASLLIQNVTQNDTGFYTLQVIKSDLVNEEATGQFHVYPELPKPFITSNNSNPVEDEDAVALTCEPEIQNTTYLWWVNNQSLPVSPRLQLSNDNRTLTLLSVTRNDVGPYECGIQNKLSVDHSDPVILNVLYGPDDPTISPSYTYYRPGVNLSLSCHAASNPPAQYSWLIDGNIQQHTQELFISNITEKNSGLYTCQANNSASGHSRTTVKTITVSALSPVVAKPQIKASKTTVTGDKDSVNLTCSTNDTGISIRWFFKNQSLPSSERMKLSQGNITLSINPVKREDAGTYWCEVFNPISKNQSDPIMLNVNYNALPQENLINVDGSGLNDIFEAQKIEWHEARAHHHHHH
# [4] = biological target: T2, N(A2B2)A-avi-His; assay: SPR off-rate, ProteOn, antigen on NLC chip, Fab in bacterial supernatant
Binder,binding result [1],binding result [2],further results
B1,binds,–,–
B2,binds,–,–
B3,–,binds,–
B4,–,binds,–
B5,binds,–,–
B6,binds,–,–
B7,binds,–,–
B8,binds,–,–
B9,–,binds,–
B10,–,binds,–
B11,–,binds,–
B12,–,binds,–
B13,–,–,Kd [3]: 2.3 nM; koff [3]: 0.000248 s⁻¹; kon [3]: 108000 M⁻¹ s⁻¹; koff [4]: 0.00031 s⁻¹
